Experimental data as given in article PMC8307404, “Crystal Structure-Guided Design of Bisubstrate Inhibitors and Photoluminescent Probes for Protein Kinases of the PIM Family” (Molecules, 2021).
Square brackets hold non-standard residues; d marks the D form. Peptide text beside a SMILES is read from it. * marks the point of attachment. X3 = O=C(CCCCCNCc1nc2c(sc3cc(Br)cnc32)c(=O)[nH]1)*

Key:
Test in all cases: Kinase profiling (radiometric filter-binding)
Type in all cases: biochemical
Aurora A = target: T1, Aurora A (Homo sapiens, UniProt O14965); conditions: 1 µM inhibitor, read-out: Residual activity, %
T1 sequence (O14965 1-403): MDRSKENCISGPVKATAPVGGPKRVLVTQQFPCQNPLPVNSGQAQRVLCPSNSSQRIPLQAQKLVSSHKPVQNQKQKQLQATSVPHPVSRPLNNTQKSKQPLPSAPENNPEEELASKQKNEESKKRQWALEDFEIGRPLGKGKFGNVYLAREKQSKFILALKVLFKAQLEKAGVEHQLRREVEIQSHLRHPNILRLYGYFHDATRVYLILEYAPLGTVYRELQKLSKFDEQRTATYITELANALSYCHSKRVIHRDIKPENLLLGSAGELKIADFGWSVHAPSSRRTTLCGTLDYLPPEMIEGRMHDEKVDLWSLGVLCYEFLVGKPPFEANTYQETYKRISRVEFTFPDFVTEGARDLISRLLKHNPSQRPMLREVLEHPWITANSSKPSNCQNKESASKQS
Method: (§1) Kinase selectivity profiling was performed using the commercial service provided by the MRC PPU International Centre for Kinase Profiling (Dundee, UK) using a radiometric filter-binding assay. Kinases used for analysis were of human origin. The ATP concentration applied for inhibition measurements was at or below the ATP KM value of the particular PK. ARC-3125 and ARC-3126 were screened against 139 PKs, whereas compounds 1, 2, and 8 were screened against 140 PKs. The final total concentration of inhibitors in the selectivity panel was 1 µM. Residual activities were expressed as the percentage of retained activity compared to the control without inhibitor.

CLK2 = CLK2 (Homo sapiens, UniProt P49760); conditions: CLK2, 1 µM inhibitor; read-out: Residual activity, %
Sequence of CLK2 (P49760 whole entry): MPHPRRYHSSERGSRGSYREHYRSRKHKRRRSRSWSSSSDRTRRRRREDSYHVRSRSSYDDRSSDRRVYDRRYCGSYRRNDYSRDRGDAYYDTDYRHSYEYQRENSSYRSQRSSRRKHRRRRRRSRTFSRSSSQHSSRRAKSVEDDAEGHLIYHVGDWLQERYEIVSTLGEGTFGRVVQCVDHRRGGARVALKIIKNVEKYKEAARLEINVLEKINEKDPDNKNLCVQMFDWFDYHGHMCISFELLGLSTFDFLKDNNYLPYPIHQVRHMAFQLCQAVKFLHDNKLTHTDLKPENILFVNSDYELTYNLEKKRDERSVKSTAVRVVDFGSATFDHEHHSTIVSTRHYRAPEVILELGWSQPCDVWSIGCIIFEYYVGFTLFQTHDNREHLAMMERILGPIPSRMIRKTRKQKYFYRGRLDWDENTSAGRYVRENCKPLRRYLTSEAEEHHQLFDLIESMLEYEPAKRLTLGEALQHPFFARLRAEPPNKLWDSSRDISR
Method: as §1

MARK4 = target: T2, MARK4 (Homo sapiens, UniProt Q96L34); conditions: MARK4, 1 µM inhibitor; read-out: Residual activity, %
T2 sequence (Q96L34 1-752): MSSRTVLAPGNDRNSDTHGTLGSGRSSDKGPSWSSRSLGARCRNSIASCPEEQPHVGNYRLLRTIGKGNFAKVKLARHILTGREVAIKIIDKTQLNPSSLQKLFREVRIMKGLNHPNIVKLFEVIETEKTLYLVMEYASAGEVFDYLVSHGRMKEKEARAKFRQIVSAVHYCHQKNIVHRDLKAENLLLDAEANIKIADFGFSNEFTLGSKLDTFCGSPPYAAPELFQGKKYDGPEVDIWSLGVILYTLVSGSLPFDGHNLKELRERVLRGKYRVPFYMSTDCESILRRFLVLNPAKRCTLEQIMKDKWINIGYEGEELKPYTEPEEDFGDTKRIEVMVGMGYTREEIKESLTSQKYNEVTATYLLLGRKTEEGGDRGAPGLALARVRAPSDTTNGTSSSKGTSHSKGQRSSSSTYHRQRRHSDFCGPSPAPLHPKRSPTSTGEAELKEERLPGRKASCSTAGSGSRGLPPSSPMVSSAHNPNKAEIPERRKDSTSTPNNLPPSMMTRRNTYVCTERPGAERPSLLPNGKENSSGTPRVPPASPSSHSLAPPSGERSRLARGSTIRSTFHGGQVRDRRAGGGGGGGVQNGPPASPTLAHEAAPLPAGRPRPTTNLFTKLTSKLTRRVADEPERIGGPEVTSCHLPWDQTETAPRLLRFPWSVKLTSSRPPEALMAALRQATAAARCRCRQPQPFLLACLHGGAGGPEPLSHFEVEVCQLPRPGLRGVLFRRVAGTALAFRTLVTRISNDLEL
Method: as §1

OSR1 = OSR1 (Homo sapiens, UniProt O95747); conditions: OSR1, 1 µM inhibitor; read-out: Residual activity, %
Sequence of OSR1 (O95747 whole entry): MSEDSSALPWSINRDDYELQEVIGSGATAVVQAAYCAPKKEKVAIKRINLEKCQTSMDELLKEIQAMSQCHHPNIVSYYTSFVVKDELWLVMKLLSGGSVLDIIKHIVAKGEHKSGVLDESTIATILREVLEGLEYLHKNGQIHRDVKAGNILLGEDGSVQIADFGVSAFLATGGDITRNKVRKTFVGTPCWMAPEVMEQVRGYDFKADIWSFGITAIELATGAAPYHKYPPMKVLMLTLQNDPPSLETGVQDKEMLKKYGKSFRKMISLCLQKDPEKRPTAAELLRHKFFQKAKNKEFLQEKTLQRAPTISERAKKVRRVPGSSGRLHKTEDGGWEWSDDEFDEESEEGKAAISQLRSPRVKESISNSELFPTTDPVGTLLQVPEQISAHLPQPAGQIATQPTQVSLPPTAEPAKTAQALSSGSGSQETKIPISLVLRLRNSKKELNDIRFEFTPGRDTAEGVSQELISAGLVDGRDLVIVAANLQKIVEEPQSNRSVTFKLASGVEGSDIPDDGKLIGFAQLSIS
Method: as §1

TLK1 = target: T3, TLK1 (Homo sapiens, UniProt Q9UKI8); conditions: TLK1, 1 µM inhibitor; read-out: Residual activity, %
T3 sequence (Q9UKI8 1-766): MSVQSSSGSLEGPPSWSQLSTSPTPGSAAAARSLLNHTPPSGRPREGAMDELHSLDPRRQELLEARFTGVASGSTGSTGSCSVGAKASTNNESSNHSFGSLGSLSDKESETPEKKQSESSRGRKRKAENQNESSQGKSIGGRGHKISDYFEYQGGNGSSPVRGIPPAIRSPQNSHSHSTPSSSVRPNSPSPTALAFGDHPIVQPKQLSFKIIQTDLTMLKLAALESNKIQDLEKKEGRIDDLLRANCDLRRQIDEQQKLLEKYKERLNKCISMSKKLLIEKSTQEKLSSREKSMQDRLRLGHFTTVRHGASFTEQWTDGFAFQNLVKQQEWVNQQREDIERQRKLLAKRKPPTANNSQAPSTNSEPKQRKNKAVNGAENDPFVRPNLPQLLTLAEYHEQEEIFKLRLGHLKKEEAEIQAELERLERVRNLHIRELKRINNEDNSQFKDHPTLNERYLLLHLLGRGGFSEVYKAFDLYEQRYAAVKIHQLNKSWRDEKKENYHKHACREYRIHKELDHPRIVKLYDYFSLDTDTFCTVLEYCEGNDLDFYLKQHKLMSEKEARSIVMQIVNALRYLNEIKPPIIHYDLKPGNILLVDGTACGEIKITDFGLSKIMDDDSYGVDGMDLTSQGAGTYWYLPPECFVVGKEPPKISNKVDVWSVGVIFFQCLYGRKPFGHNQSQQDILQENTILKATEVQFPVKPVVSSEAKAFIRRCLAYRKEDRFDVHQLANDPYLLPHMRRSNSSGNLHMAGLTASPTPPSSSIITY
Method: as §1

SMILES | remaining activity at 1 µM (Aurora A) | remaining activity at 1 µM (CLK2) | remaining activity at 1 µM (MARK4) | remaining activity at 1 µM (OSR1) | remaining activity at 1 µM (TLK1)
N=C(N)NCCC[C@@H](NC(=O)CNC(=O)[C@@H](CCCNC(=N)N)NC(=O)[C@@H](CCCNC(=N)N)NC(=O)Cn1cc(CNCc2nc3c(sc4ccc(Br)cc43)c(=O)[nH]2)nn1)C(=O)N[C@H](CCCCN)C(N)=O [Compound 3, BBTP-Amt-(D-Arg)2-Gly-D-Arg-D-Lys-NH2] | 97 ± 3% | 30 ± 1% | 90 ± 12% | 107 ± 14% | 109 ± 10%
N=C(N)NCCC[C@@H](NC(=O)CCCCCNCc1nc2c(sc3cc(Br)cnc32)c(=O)[nH]1)C(=O)N[C@H](CCCNC(=N)N)C(=O)N[C@H](CCCNC(=N)N)C(=O)N[C@H](CCCNC(=N)N)C(=O)N[C@H](CCCNC(=N)N)C(=O)N[C@H](CCCNC(=N)N)C(=O)N[C@H](CCCCN)C(N)=O [ARC-3126, BPTP-Ahx-(D-Arg)6-D-Lys-NH2] (X3-[dR][dR][dR][dR][dR][dR][dK]-NH2) | 132 ± 8% | 57 ± 15% | 119 ± 7% | 116 ± 12% | 91 ± 10%
N=C(N)NCCC[C@@H](NC(=O)CCCCCNC(=O)Cn1cnc2c(I)c(I)c(I)c(I)c21)C(=O)N[C@H](CCCNC(=N)N)C(=O)N[C@H](CCCNC(=N)N)C(=O)N[C@H](CCCNC(=N)N)C(=O)N[C@H](CCCNC(=N)N)C(=O)N[C@H](CCCNC(=N)N)C(=O)N[C@H](CCCCN)C(N)=O [ARC-3125, TIBI-CH2-C(=O)-Ahx-(D-Arg)6-D-Lys-NH2] | 84 ± 1% | -1 ± 5% | 92 ± 3% | 73 ± 2% | 78 ± 1%
N=C(N)NCCC[C@@H](NC(=O)CNC(=O)[C@@H](CCCNC(=N)N)NC(=O)[C@@H](CCCNC(=N)N)NC(=O)CCCCCCCNCc1nc2c(sc3cc(Br)cnc32)c(=O)[nH]1)C(=O)N[C@H](CCCCN)C(N)=O [Compound 1, BPTP-Aoc-(D-Arg)2-Gly-D-Arg-D-Lys-NH2] | 99 ± 6% | 97% | 124 ± 14% | 114 ± 7% | 118 ± 1%
N=C(N)NCCC[C@@H](NC(=O)CNC(=O)[C@@H](CCCNC(=N)N)NC(=O)[C@@H](CCCNC(=N)N)NC(=O)CCCCCCCNCc1nc2c(sc3ccc(Br)cc32)c(=O)[nH]1)C(=O)N[C@H](CCCCN)C(N)=O [Compound 2, BBTP-Aoc-(D-Arg)2-Gly-D-Arg-D-Lys-NH2] | 106 ± 3% | 24% | 128 ± 3% | 114 ± 4% | 122 ± 9%
